The supplement of paper PMC10126150
± gives the standard deviation of the averaged measurements.

tested on: ATP; assay: switch fluorescence ratio, 500 uM ATP over buffer (Cy3 cluster intensity, sum of 5 cycles each) (fold (ratio)); higher = stronger signal-on switching upon ATP binding; sequences stand for … in TCGTCGGCAGCGTCAGATGTGTATAAGAGACAGTTTTTTTTTTTTTTTTTTTTTTTTT…TC; details: aptamer strand: ATP DNA aptamer (quencher-CACCTGGGGGAGTATTGCGGAGGAAGG + anchor), 100 nM annealed; ATP concentration: 500 uM
Procedure, shortened: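 After annealing to 100 nM quencher-labelled ATP aptamer, Cy3-labelled switching-strand clusters on a modified Illumina MiSeq flow-cell were imaged in selection buffer. A second image followed after 15 min with 500 uM ATP at 22 °C, and five such buffer/ATP cycles were done, each separated by NaOH stripping and re-annealing. The fluorescence ratio, averaged per switch-domain sequence, is summed target-cycle over summed buffer-cycle Cy3 intensity per cluster, with clusters outside 100-1000 RFU excluded.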
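Further: ATP exposure 15 min at 22 °C before imaging.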

In order of falling switch fluorescence ratio:
1. GGCCGCACGC  3.69 ± 0.059
2. GGCCAAGGTG  2.05 ± 0.42
3. GGCACAGGGG  1.91 ± 0.17
4. GGAGTCATAC  1.63 ± 0.035
5. GGCGCGATGG  1.55 ± 0.13
6. GGCGTAATAT  1.54 ± 0.085
7. GGCGCAGCAA  1.47 ± 0.091
8. GGCATCCAGG  1.38 ± 0.064
9. GGCGTAGGCC  1.2 ± 0.29
10. GGCAAAAACG  1.16 ± 0.22
11. GGCTTCCCGG  1.16 ± 0.002
12. GGCGCATGTC  1.14 ± 0.029
13. GGCTAGGGGA  1.13 ± 0.21
14. GGATTAGGTG  1.12 ± 0.017
15. GGCGCATAGG  1.11 ± 0.02
16. GGATGTAAGA  1.1 ± 0.18
17. GGCGTGATGC  1.091 ± 0.0076
18. GGCCCGGTGC  1.08 ± 0.12
19. GGAGAACCCT  1.07 ± 0.038
20. GGCGAAAACT  1.073 ± 0.0052
21. GGAGATTGCA  1.058 ± 0.0089
22. GGCAAAGGGT  1.06 ± 0.056
23. GGCATGAGAC  1.06 ± 0.047
24. GGAGTAACAT  1.04 ± 0.012
25. GGAGTTAATC  1.04 ± 0.037
26. GGATTTGGTT  1.04 ± 0.036
27. GGCCATCTGG  1.04 ± 0.026
28. GGCGGCATGG  1.04 ± 0.023
29. GGCGGTAATG  1.036 ± 0.005
30. GGAGATAGGG  1.03 ± 0.017
31. GGAGCGGGGT  1.03 ± 0.019
32. GGAGGAAGTA  1.03 ± 0.044
33. GGATTACTCT  1.0308 ± 0.00015
34. GGATTACTGG  1.03 ± 0.023
35. GGATTTACGC  1.03 ± 0.03
36. GGCCGAATGG  1.03 ± 0.043
37. GGCCGGGGGA  1.03 ± 0.069
38. GGCCTCGACC  1.03 ± 0.0086
39. GGCGAAGTGC  1.03 ± 0.013
40. GGCGAGTGAG  1.03 ± 0.029
41. GGCGGGTGAG  1.03 ± 0.025
42. GGCTAAGAAT  1.03 ± 0.058
43. GGCTTTTGGG  1.03 ± 0.088
44. GGAGACCGCT  1.02 ± 0.034
45. GGAGATGCGG  1.02 ± 0.011
46. GGAGGAACAT  1.02 ± 0.016
47. GGAGGAGGTG  1.02 ± 0.065
48. GGAGGATACG  1.02 ± 0.025
49. GGAGGGGGGG  1.02 ± 0.042
50. GGAGTTAATT  1.02 ± 0.013
51. GGATACGGGC  1.02 ± 0.079
52. GGATTGGGGA  1.02 ± 0.031
53. GGATTGTATT  1.02 ± 0.0055
54. GGCAACTGGG  1.02 ± 0.05
55. GGCCACTGGA  1.02 ± 0.021
56. GGCCCACCCA  1.02 ± 0.072
57. GGCCCCTATT  1.023 ± 0.01
58. GGCCCTGCAG  1.02 ± 0.042
59. GGCCGGTGGA  1.02 ± 0.038
60. GGCGGATTGG  1.02 ± 0.015
61. GGCGTAAATG  1.02 ± 0.0066
62. GGCTGAAGAG  1.02 ± 0.033
63. GGCTGAGTTA  1.021 ± 0.0025
64. GGAGACATGT  1.006 ± 0.0022
65. GGAGCCGGGC  1.01 ± 0.013
66. GGAGGGGCGG  1.01 ± 0.043
67. GGAGGGTTTT  1.01 ± 0.035
68. GGAGTTTGGT  1.01 ± 0.056
69. GGATAACTCT  1.01 ± 0.015
70. GGATAGAGTA  1.01 ± 0.0075
71. GGATCTACCG  1.01 ± 0.032
72. GGATGATGA  1.01 ± 0.061
73. GGATGGTGGT  1.01 ± 0.016
74. GGATTAGCTT  1.01 ± 0.051
75. GGATTGTTGG  1.008 ± 0.0033
76. GGCAGGGGAA  1.01 ± 0.012
77. GGCATGGTGG  1.01 ± 0.023
78. GGCCCGGGGG  1.01 ± 0.028
79. GGCCCTACAG  1.01 ± 0.036
80. GGCCGAGCTC  1.012 ± 0.0085
81. GGCCGGGTTC  1.01 ± 0.022
82. GGCCTAAAGG  1.005 ± 0.0082
83. GGCGTGCGTA  1.01 ± 0.026
84. GGCTAACAAG  1.01 ± 0.02
85. GGCTGGTTGG  1.01 ± 0.017
86. GGCTTGAACA  1.01 ± 0.034
87. GGCTTTACGG  1.012 ± 0.0081
88. GGCTTTGGCG  1.01 ± 0.015
89. GGACTGGATG  1 ± 0.031
90. GGATAAGGCC  1 ± 0.012
91. GGATAGAGCT  1 ± 0.034
92. GGATGCGGGT  1 ± 0.03
93. GGATGGACAG  1 ± 0.01
94. GGATGGGCTG  1 ± 0.094
95. GGATGGGGTT  1 ± 0.018
96. GGATTATTGG  1.002 ± 0.0083
97. GGATTTCTTA  1 ± 0.025
98. GGCAGAGTGT  1 ± 0.063
99. GGCAGTGCGG  1 ± 0.06
100. GGCCAAGGTC  1.004 ± 0.004
101. GGCCAGGGGG  1 ± 0.09
102. GGCCCAGAAA  1.003 ± 0.0097
103. GGCGAGTTT  1 ± 0.021
104. GGCGATTGGA  1 ± 0.016
105. GGCGCTTAGA  1 ± 0.053
106. GGCGGCTGAG  1 ± 0.067
107. GGCTGTTTGG  1 ± 0.012
108. GGAGGTAGGG  0.99915 ± 0.00057
109. GGATGGCTTC  0.9987 ± 0.0023
110. GGATTGGTTG  0.999 ± 0.038
111. GGATTTCCAG  0.999 ± 0.03
112. GGCACGTGGG  0.999 ± 0.017
113. GGCATTATAG  0.999 ± 0.0097
114. GGCGGTAGTG  0.999 ± 0.025
115. GGACTTCTGG  0.998 ± 0.041
116. GGAGCTTTGG  0.998 ± 0.035
117. GGATTAAAGC  0.998 ± 0.022
118. GGAGGAGGCA  0.997 ± 0.033
119. GGATGGGGGT  0.9972 ± 0.0097
120. GGATGGTGGA  0.9966 ± 0.0093
121. GGATGTATAG  0.997 ± 0.052
122. GGCTTGCGGT  0.9974 ± 0.004
123. GGATTCGAAG  0.9953 ± 0.0071
124. GGCCCGGGGC  0.995 ± 0.017
125. GGCGGGGGCA  0.995 ± 0.024
126. GGATTGTTGT  0.994 ± 0.022
127. GGCTTCTAAG  0.994 ± 0.026
128. GGATGGATGG  0.993 ± 0.082
129. GGCTAAGGGG  0.992 ± 0.023
130. GGATTGTAAG  0.991 ± 0.032
131. GGAGAGGGGT  0.99 ± 0.035
132. GGATATGGGG  0.99 ± 0.012
133. GGATGGGTGG  0.99 ± 0.025
134. GGCGGGGGCT  0.99 ± 0.018
135. GGCGGTATAT  0.99 ± 0.027
136. GGATCTTTGA  0.989 ± 0.027
137. GGCTGGGGTA  0.9884 ± 0.0032
138. GGAGGTTGTG  0.987 ± 0.017
139. GGATTAGTGT  0.987 ± 0.032
140. GGCGGGGGAC  0.987 ± 0.057
141. GGATGGGGGG  0.986 ± 0.016
142. GGCGGAGGGT  0.986 ± 0.03
143. GGCGGGAGGG  0.986 ± 0.029
144. GGCTAGAATC  0.986 ± 0.024
145. GGCTGTTATT  0.986 ± 0.039
146. GGATGATGGT  0.985 ± 0.037
147. GGATTGTGTT  0.985 ± 0.0018
148. GGCCGTAGAA  0.985 ± 0.032
149. GGCGTTGGCT  0.985 ± 0.011
150. GGACTTAGGG  0.9839 ± 0.0075
151. GGAGGACTTT  0.9826 ± 0.0028
152. GGCATATGTA  0.9829 ± 0.0076
153. GGCTTAAGTA  0.9833 ± 0.0084
154. GGATTCTAAT  0.982 ± 0.01
155. GGATTTCAGG  0.982 ± 0.017
156. GGCCTGCCAT  0.9813 ± 0.0095
157. GGCGGGGAAA  0.981 ± 0.045
158. GGCTTATGGA  0.98 ± 0.038
159. GGAGGGTTGT  0.979 ± 0.04
160. GGATAGAGAA  0.9789 ± 0.008
161. GGCGATGGGG  0.979 ± 0.023
162. GGCGATTGCG  0.979 ± 0.0041
163. GGAGGGGTTA  0.978 ± 0.015
164. GGAGTTCCAG  0.978 ± 0.048
165. GGATTCAGCT  0.978 ± 0.027
166. GGATTTGTGG  0.978 ± 0.023
167. GGAGCTGTCG  0.9774 ± 0.0094
168. GGATCGTTGA  0.977 ± 0.019
169. GGCTTTGGAT  0.977 ± 0.018
170. GGATTATCGG  0.976 ± 0.023
171. GGAGGAAGTC  0.975 ± 0.0024
172. GGATTATGTC  0.975 ± 0.039
173. GGCGGTATGT  0.975 ± 0.028
174. GGCTTTGGGG  0.975 ± 0.04
175. GGATTGTAGG  0.9738 ± 0.0053
176. GGCCGGTTGG  0.9744 ± 0.0068
177. GGATCGGGCG  0.973 ± 0.051
178. GGCGGGACGA  0.973 ± 0.036
179. GGCGTATATG  0.973 ± 0.027
180. GGACTTGGTC  0.972 ± 0.019
181. GGATTGATGT  0.972 ± 0.011
182. GGCCGTTCAT  0.972 ± 0.011
183. GGCTATTGGA  0.971 ± 0.012
184. GGATAAGGAA  0.9698 ± 0.0076
185. GGCTAAGTTT  0.97 ± 0.02
186. GGCATAGTTT  0.969 ± 0.026
187. GGAGTTGGG  0.968 ± 0.012
188. GGCTCAATTT  0.967 ± 0.012
189. GGATGGAAGG  0.963 ± 0.033
190. GGCATTGGAT  0.962 ± 0.034
191. GGCGTTCTTG  0.962 ± 0.015
192. GGATCGAAGG  0.96 ± 0.039
193. GGCGATTTTG  0.958 ± 0.03
194. GGAGGGCTTT  0.956 ± 0.064
195. GGATATTGCT  0.949 ± 0.043
196. GGCATATCGT  0.949 ± 0.041
197. GGAGGATGCT  0.948 ± 0.053
198. GGATCCAAAT  0.947 ± 0.017
199. GGATAGGGCG  0.946 ± 0.1
200. GGCACTAGGG  0.94 ± 0.077
